Test results as given in patent US20120177664A1 (IMMUNAS PHARMA, published 2012).
Substitutions are numbered along the chain they refer to.

B1: IR-094 antibody (antibody, mouse IgG2b, V domains shown)
VH: EVKLEESGGGLVQPGGSMKLSCVASGFTFSNYWMNWVRQSPEKGLEWVAEIRLKSNNYATHYAESVKGRFTISRDDSKSSVYLQMNNLRAEDTGIYYCTRRGPSGYDRAWFAYWGQGTLVTVSA
VL: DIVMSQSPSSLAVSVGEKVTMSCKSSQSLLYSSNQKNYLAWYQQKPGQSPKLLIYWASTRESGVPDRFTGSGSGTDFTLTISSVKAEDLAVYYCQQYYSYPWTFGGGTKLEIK
notes: mouse IgG2b
B2: IR-028 antibody (antibody, V domains shown)
VH: DVQLVESGGGLVQPGGSRKLSCAASGFTFSSFGMHWVRQAPEKGLEWVAYISSGSSTIYYADTVKGRFTISRDNPKNTLFLQMTSLRSEDTAMYYCARTGTGAMDYWGQGTSVTVSS
VL: DVVMTQTPLSLPVSLGDQASISCRSSQSLVHSNGNTYLHWYLQKPGQSPKLLIYKVSNRFSGVPDRFSGSGSGTDFTLKISRVEAEDLGVYFCSQSTHVPPTFGGGTKLEIK
notes: mouse IgG2b
B3: IR-039 antibody (antibody, mouse IgG2b, V domains shown)
VH: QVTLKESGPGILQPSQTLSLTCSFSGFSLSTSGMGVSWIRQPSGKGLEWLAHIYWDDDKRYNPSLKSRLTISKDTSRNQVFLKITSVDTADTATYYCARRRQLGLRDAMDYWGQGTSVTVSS
VL: B2 VL with V3L, L29I, H39E, F92Y, S94F, S96G, T97S, P101L, G105A, I111L
notes: mouse IgG2b
B4: IR-098 antibody (antibody, mouse IgG2b, V domains shown)
VH: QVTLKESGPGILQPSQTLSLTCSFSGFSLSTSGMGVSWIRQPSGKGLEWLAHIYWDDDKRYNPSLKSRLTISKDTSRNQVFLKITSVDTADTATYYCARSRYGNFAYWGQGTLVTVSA
VL: B2 VL with V3L, L29I, H39E, F92Y, S94F, S96G, T97S, P101L, G105A, I111L
notes: mouse IgG2b
B5: IR-117 antibody (antibody, mouse IgG2b, V domains shown)
VH: not shown
VL: B2 VL with P101L, G105A, I111L
notes: mouse IgG2b
B6: IR-036 antibody (antibody, mouse IgG2b, V domains shown)
VH: QVTLKESGPGILQPSQTLSLTCSFSGFSLSTSGMGVSWIRQPSGKGLEWLAHIYWDDDKRYNPSLKSRLTISKDTSRNQVFLKITSVDTADTATYYCARRANYYGYGMDAMDYWGQGTSVTVSS
VL: B2 VL with V3L, L29I, H39E, F92Y, S94F, S96G, T97S, P101L, G105A, I111L
notes: mouse IgG2b
B7: IR-118 antibody (antibody, mouse IgG2a, V domains shown)
VH: QVQLKESGPGLVAPSQSLSITCTISGFSLTSYGVHWVRQPPGKGLEWLVVIWSDGSTTYNSALKSRLSISKDNSKSQLFLKMNSLQTDDTAMYYCARHSYRYGLMDYWGQGTSVTVSS
VL: B2 VL with P101L, G105A, I111L
notes: mouse IgG2a
B8: IR-128 antibody (antibody, V domains shown)
VH: DVQLVESGGGLVQPGGSRKLSCAASGFTFSSFGMHWVRQAPEKGLEWVAYISSGSSTIYYADTVKGRFTISRDNPKNTLFLQMTSLRSEDTAMYYCAREGHFDYWGQGTTLTVSS
VL: B2 VL
notes: mouse IgG2a
B9: IR-107 antibody (antibody, mouse IgG2b, V domains shown)
VH: DVQLVESGGGLVQPGGSRKLSCAASGFTFSSFGMHWVRQAPEKGLEWVAYISSGSSTIYYADTVKGRFTISRDNPKNTLFLQMTSLRSEDTAMYYCARYGYAMDYWGQGTSVTVSS
VL: B2 VL with V3L, L29I, H39E, F92Y, S94F, S96G, T97S
notes: mouse IgG2b
B10: IR-037 antibody (antibody, mouse IgG1, V domains shown)
VH: B8 VH with E99D, H101T, F102M, T110S, L111V
VL: B2 VL with V2A, V30E, H31N, H39N, K50Q, K55R, P64L, S94L, S96V
notes: mouse IgG1
B11: IR-121 antibody (antibody, mouse IgG2b, V domains shown)
VH: B2 VH with R98T, T99Y, T101I, G102Y
VL: B2 VL with V3L, L29I, H39E, F92Y, S94F, S96G, T97S
notes: mouse IgG2b
B12: IR-038 antibody (antibody, mouse IgG2b, V domains shown)
VH: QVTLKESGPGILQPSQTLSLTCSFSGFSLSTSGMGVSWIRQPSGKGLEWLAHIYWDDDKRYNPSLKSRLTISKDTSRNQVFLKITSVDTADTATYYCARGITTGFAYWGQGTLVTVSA
VL: B2 VL with V3L, L29I, H39E, F92Y, S94F, S96G, T97S, P101L, G105A, I111L
notes: mouse IgG2b
B13: IR-124 antibody (antibody, mouse IgG2a, V domains shown)
VH: B2 VH with R98I, T99Y, G100Y, T101Y, A103S, M104S, D105Y, S112T, V113L
VL: B2 VL with V3L, L29I, H39E, F92Y, S94F, S96G, T97S, G105A, I111L
notes: mouse IgG2a
B14: IR-125 antibody (antibody, mouse IgG2b, V domains shown)
VH: DVQLVESGGGLVQPGGSRKLSCAASGFTFSSFGMHWVRQAPEKGLEWVAYISSGSSTIYYADTVKGRFTISRDNPKNTLFLQMTSLRSEDTAMYYCARAGGYSLSYAMDYWGQGTSVTVSS
VL: B2 VL with V3L, L29I, H39E, F92Y, S94F, S96G, T97S
notes: mouse IgG2b
B15: IR-146 antibody (antibody, mouse IgG2a, V domains shown)
VH: B2 VH with T99G
VL: B2 VL with V3L, L29I, H39E, F92Y, S94F, S96G, T97S
notes: mouse IgG2a
B16: IR-127 antibody (antibody, mouse IgG2a, V domains shown)
VH: B14 VH with A99K, G101T, S103Y, L104R, S105Y, Y106D, M108F, S116T, V117L
VL: B2 VL with V3L, L29I, H39E, F92Y, S94F, S96G, T97S
notes: mouse IgG2a
B17: IR-079 antibody (antibody, mouse IgG2b, V domains shown)
VH: DVQLVESGGGLVQPGGSRKLSCAASGFTFSSFGMHWVRQAPEKGLEWVAYISSGSSTIYYADTVKGRFTISRDNPKNTLFLQMTSLRSEDTAMYYCARYGTLYYYAMDYWGQGTSVTVSS
VL: B2 VL with V3L, L29I, H39E, F92Y, S94F, S96G, T97S
notes: mouse IgG2b
B18: IR-110 antibody (antibody, mouse IgG2b, V domains shown)
VH: B9 VH with R98S, Y101N, A102Y, M103G, D104A, S111L, S116A
VL: B2 VL with V3L, L29I, H39E, F92Y, S94F, S96G, T97S
notes: mouse IgG2b
B19: IR-077 antibody (antibody, mouse IgG2a, V domains shown)
VH: B14 VH with A99S, G101Y, Y102R, S103Y, L104S, S105Y
VL: B2 VL with V3L, L29I, H39E, F92Y, S94F, S96G, T97S, P101L, G105A, I111L
notes: mouse IgG2a
B20: IR-112 antibody (antibody, mouse IgG2a, V domains shown)
VH: QVTLKESGPGILKPSQTLSLTCSFSGFSLSTSGMGVGWIRQPSGKGLEWLAHIWWDDDKYYNPSLKSQLTISKDTSRNQVFLKITSVDTADTATYYCARRSMITTNDYFDYWGQGTTLTVSS
VL: B2 VL with V3L, L29I, H39E, F92Y, S94F, S96G, T97S
notes: mouse IgG2a
B21: IR-063 antibody (antibody, mouse IgG2b, V domains shown)
VH: B8 VH with H101D
VL: B2 VL with P101L, G105A, I111L
notes: mouse IgG2b
B22: IR-095 antibody (antibody, mouse IgG2b, V domains shown)
VH: B6 VH with N102P, Y103R, Y104L, G105Y, M108Y
VL: B2 VL with V3L, L29I, H39E, F92Y, S94F, S96G, T97S, P101L, G105A, I111L
notes: mouse IgG2b
B23: IR-041 antibody (antibody, mouse IgG2a, V domains shown)
VH: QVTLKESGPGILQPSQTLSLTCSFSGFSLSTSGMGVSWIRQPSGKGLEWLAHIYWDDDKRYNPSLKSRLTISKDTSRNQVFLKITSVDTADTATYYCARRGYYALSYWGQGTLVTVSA
VL: B2 VL with V3L, L29I, H39E, F92Y, S94F, S96G, T97S, P101L, G105A, I111L
notes: mouse IgG2a
B24: IR-083 antibody (antibody, mouse IgG2b, V domains shown)
VH: DVQLVESGGGLVQPGGSRKLSCAASGFTFSRFGMYWVRQAPEKGLEWVAYISSGSSTIYYADIVKGRFTISRDNPKNTLFLQMTSLRSEDTAMYYCARRGYYEAMDYWGQGTSVTVSS
VL: B2 VL with V3L, L29I, H39E, E86D, F92Y, S94F, S96G, T97S
notes: mouse IgG2b
B25: IR-062 antibody (antibody, mouse IgG2b, V domains shown)
VH: B2 VH with T99Y, G100Y, T101H, G102Y
VL: B2 VL with V3L, L29I, H39E, F92Y, S94F, S96G, T97S
notes: mouse IgG2b
B26: IR-081 antibody (antibody, mouse IgG2b, V domains shown)
VH: B24 VH with R31S, Y35H, I63T, G100W, Y101G, Y102E, E103G
VL: B2 VL with V3L, L29I, H39E, F92Y, S94F, S96G, T97S
notes: mouse IgG2b
B27: IR-067 antibody (antibody, mouse IgG2b, V domains shown)
VH: B24 VH with R31S, Y35H, I63T, R99S, Y101G, Y102N, E103Y, A104L
VL: B2 VL with V3L, L29I, H39E, F92Y, S94F, S96G, T97S, P101L, G105A, I111L
notes: mouse IgG2b
B28: IR-152 antibody (antibody, mouse IgG2b, V domains shown)
VH: B24 VH with R31S, Y35H, I63T, R99G, Y101H, Y102V, E103G
VL: B2 VL with P101W
notes: mouse IgG2b
B29: IR-097 antibody (antibody, mouse IgG2b, V domains shown)
VH: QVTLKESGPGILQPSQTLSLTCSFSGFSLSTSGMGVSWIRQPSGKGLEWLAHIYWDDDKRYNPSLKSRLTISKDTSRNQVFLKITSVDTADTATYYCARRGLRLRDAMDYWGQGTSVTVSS
VL: B2 VL with V3L, L29I, H39E, F92Y, S94F, S96G, T97S, P101L, G105A, I111L
notes: mouse IgG2b
B30: IR-060 antibody (antibody, mouse IgG2a, V domains shown)
VH: B14 VH with A99G, G101N, S103L, L104R, S105Y
VL: B2 VL with V3L, L29I, H39E, F92Y, S94F, S96G, T97S, P101L, G105A, I111L
notes: mouse IgG2a
B31: IR-108 antibody (antibody, mouse IgG2a, V domains shown)
VH: QVTLKESGPGILKPSQTLSLTCSFSGFSLSTSGMGVGWIRQPSGKGLEWLAHIWWDDDKYYNPSLKSQLTISKDTSRNQVFLKITSVDTADTATYYCARRGLRRGDYFDYWGQGTTLTVSS
VL: B2 VL with V3L, L29I, H39E, F92Y, S94F, S96G, T97S, P101L, G105A, I111L
notes: mouse IgG2a
B32: IR-057 antibody (antibody, mouse IgG1, V domains shown)
VH: B2 VH with T99Y, T101N, G102Y
VL: B2 VL with V3L, L29I, H39E, F92Y, S94F, S96G, T97S
notes: mouse IgG1

These binders were tested against T1, A beta oligomer (synthetic A beta1-40, HCl form, 0.1 mg/ml in PBS, incubated at 37 degrees C for one hour) (UniProt P05067 672-711) (assay: SPR (Biacore 3000)).
T1 construct: domain: A beta1-40; non-fibrous multimer of the peptide; also called A beta 1-40 oligomer
Experimental: The analysis was carried out by Surface Plasmon Resonance (SPR) using Biacore 3000 (GE Healthcare Sciences).

Row | Binder | Kd [nM] | koff [s⁻¹] | kon [M⁻¹ s⁻¹]
1 | B1 | 59.4 | 0.0215 | 362000
2 | B2 | 852 | 0.27 | 317000
3 | B3 | 47.4 | 0.00711 | 150000
4 | B4 | 36.3 | 0.0138 | 380000
5 | B5 | 921 | 0.0668 | 72500
6 | B6 | 100 | 0.00876 | 87600
7 | B7 | 27.5 | 0.00153 | 55700
8 | B8 | 1070 | 0.37 | 345000
9 | B9 | 339 | 0.1 | 295000
10 | B10 | 659 | 0.0609 | 92400
11 | B11 | 84.2 | 0.00831 | 98700
12 | B12 | 84.3 | 0.00752 | 89200
13 | B13 | 141 | 0.00995 | 70400
14 | B14 | 78.8 | 0.00395 | 50100
15 | B15 | 1060 | 0.383 | 361000
16 | B16 | 1020 | 0.261 | 256000

Row | Binder | Kd [nM] | koff [s⁻¹] | kon [M⁻¹ s⁻¹]
17 | B17 | 1050 | 0.297 | 282000
18 | B18 | 177 | 0.0719 | 407000
19 | B19 | 550 | 0.153 | 278000
20 | B20 | 41.1 | 0.00376 | 91400
21 | B21 | 1270 | 0.145 | 114000
22 | B22 | 35 | 0.00331 | 94600
23 | B23 | 1370 | 0.0949 | 69400
24 | B24 | 699 | 0.431 | 617000
25 | B25 | 364 | 0.139 | 382000
26 | B26 | 1250 | 0.421 | 336000
27 | B27 | 549 | 0.118 | 215000
28 | B28 | 58.8 | 0.00227 | 38600
29 | B29 | 15.7 | 0.00303 | 193000
30 | B30 | 2610 | 0.2 | 76700
31 | B31 | 11.8 | 0.00296 | 250000
32 | B32 | 156 | 0.0579 | 370000
